Target: AaSR-C-Full (full-length A. aegypti scavenger receptor-C with its trans-membrane region, 23-494 aa) (Aedes aegypti)
Assay: flow cytometry on cells

purified inactivated DENV-2 virions (complex)
percent of AaSR-C-expressing cells bound by DENV-2 virions: > 90%

Source: PMC3983052
